# A protein production outcome set (Wang et al. 2014)
# Assay: label from the status in PepcDB records
# 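Further: failed if final PepcDB status was selected cloned or expressed and not failed if soluble or beyond.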
row,Sequence,protein production
1,MSVDPMTYEAQFFGFTPQTCMLRIYIAFQDYLFEVMQAVEQVILKKLDGIPDCDISPVQIRKCTEKFLCFMKGHFDNLFSKMEQLFLQLILRIPSNILLPEDKCKETPYSEEDFQHLQKEIEQLQEKYKTELCTKQALLAELEEQKIVQAKLKQTLTFFDELHNVGRDHGTSDFRESLVSLVQNSRKLQNIRDNVEKESKRLKIS,failed
2,MSVETAQRSEVGVAMARSWLLVPAVGSEVLAAAAASGADSLVIDLEDGLPFAAKDEGRARTAEWLARNAGWVRINDATTPHWQRDLDAIRGLPGVRGLMLSKTESPEQVRDTAEGIPGIPVVALVESAAAIVAADDIARTAPVSRLAFGIGDYCRDTGAGRTPMALAYARSRLVNASRAARIGAPIDGPTLSLDAEAVRDDTRLAREMGMTGKLTLATEQVPVINTALAPDSNDISWAETTIARLGADGSRVTHGGHPPQLARAHDILRRAAHFASRT,failed
3,MSVFAKVVELGSFTAAARQLQMSVSSISQTVAKLEDELQVKLLNRSTRSLGLTEAGKIYYQGCRRMLFEAQDVHEQLYAFNNTPIGTLRIGCSSTMAQNVLARITAKMLKEYPGLSVNLVTGIPAPDLIADGLDVVIRVGALQDSSLFSRRLGSMPMVLCAAKSYLAQAGNPEKPADLAGHAWLEYSVRPDNEFVIIAPEGISTRLTPQGRFVTNDPMTLVRWLTAGVGIAYVPLMWAIEEINRGELEILLPSYQSDPRPVYALYTEKDKLPLKVQVCINYLTEYFVDVAKIYQGMHGRGIAR,failed
4,MSVFTTKVQSIGPEAELFKEEKMVILFGKDAPDALADYCYNIEVQPVTEAITDKQTLVIDEQTYQITAVGEVVLTNLDTLGHITIKFDGATTPELPGTLYVEEKAIPEITVGTTIT,failed
5,MSVGRIHSFETCGTVDGPGIRFIVFLQGCLMRCMYCHNRDTWDTHDGKEVTVAELIEEAKSYRHFMKASGGGITCSGGEAMLQPEFVRDFFRAAQAEGIHTCLDTNGYIRKHTDVIDEVLEASDLVMLDLKQMKDDVHKEFIGVSNTRVLDFARYLHKIGQKTWIRYVIVPGYTDDEESAHLLGNFIKDMDNIEKIELLPYHKLGAHKWEALGHDYPLEGVNPPSKETMEKMVEILSQYHNNVKY,failed
6,MSVKAGDVFKYERRFTEEEVFEFANITGDKGRHHVEYDENGRLMVHGLLTASIGTKVGEELHYIARELVSEFIRPVFTGDTITCELTLTNVEQMEGYKKVSIESVYRNQHEKTVLVGTSYGIIRGLEHHHHHH,not failed
7,MSVKIVHHKNFLGMIKELMKDAQSVLDIGCGVGATLKDFPCPIKIGVDAHGPYLEKARLATSFLPIKYEAQRIGEIFLAKSVDCVSMIDVIEHMEKGVGYEVLAQAERIAVKRVIVFTPRGFFKQKAEDHYGLGGESFQEHRSGWEIEDFTQRGYQVIVFNQFHDQSNLAFVESYGKDAKPMDALLAWKELR,not failed
8,MSVKKDWIAPLALLFVSFIWGATFVVVQNAMSFVGPFTFNGIRFLFAGIILLFVQMIFSKKTSKQDIKQSSLAGLTVGFFLCVGYVLQTFGLLYTTSSKAGFLTGLSIVMVPILSFIFLKQKATIFIVIGIAVATAGLYLLTAGDSFQLNIGDILVLGCAVAFAAHILVNGFFSKKISPLLLSTSQVLAVGMFSSICAFLFEDWEKLFSVALWTNASFLFALFLTSLFATSIAFFIQTSAQKHTSPTRVAIIFAMEPVFAALTGVLVANEQLSISAIIGCLCIFLGMVFVELPSKTKKEAQAA,failed
9,MSVKLRLPQSAYPIFDRIEEMAWARHYQQIVREEKETELADDLEKGLPQHLFESLCIDHLQRHGANKQAISHAFDDDVEFQERMAEHIRYMAETIAHHQVDIDLEDLEHHHHHH,not failed
10,MSVPLILTLLAGAATFIGAFLGVLGQKPSNRMLAFSLGFAAGIMLLISLMEMLPAALDTEGMSPVLGYGMFIIGLLGYFGLDRLLPHAHPQDLVQKRQQPLPGSIKRTAILLTLGISLHNFPEGIATFVTASSNLELGFGIALAVALHNIPEGLAVAGPVYAATGSKRTAIFWAGISGMAEILGGVLAWLILGSLVSPIVMAAIMAAVAGIMVALSVDELMPLAKEIDPNNNPSYGVLCGMSIMGLSLVILQTIGIG,failed
11,MSVPRPMEGRASGSARIYQAGGDQYIEEHVHHHAPGSAPLFGHPWTGPAEPREAAPDSVRMPLVGRAPRVLRDRTDLMERLRAAVAGPGSDIQVLHGMGGCGKTAVAQALFTEAVRDHGRVGLWVNASERVSLRAGMLAVAGDRGATAGELAAAAGGRRAAADLVWHYLDQSAQPWLLVLDNADDPAVLEEGSWLRPSPSGTVLVTTRHATSSLWRAPATSSHRLGVLPLEDATLVLRDLAPDAGTRESARKVARRLGCLPLALTLAGAHLAHQLLESWSMDEYDRKLTEESTALVDRGASATGGGQSRHLVGRTWQLSLDGLAERGLPEATALLRLLSCWAADPVPLSLLMPAAQGGVGLEHLDPPLAAPRVEPALRALLDHSLIEMVETDGHRCVKAHGVLLDSVAGSVPDAERALLAAAAGGLLRAALPPEGAASPRARSQVRLLAPHATGLLHRSHRHDLVTAESVRLAVRLARLVYEAGDWTAALALASTAAKTAAEHLGAEHPVTIEARSGQGTVLFRLGRYAEAADLLRPVQQEALRTLGPHDERTLDAAYELQRVLHRLGDLAHARTLLDTVLDGRRQALGEDHVATLKTRCELLELRLAQDEFDGYTAAAGELAGECERRLGPEHLVTVWARDALARGLLRSGRGAEAEELFRRVLAGQRAGYGDDHPLVYGVLIQLSRAQYAQGKRERAAESAREVAEGRAVILGEDHPETVAARAWYTEVLATPPAPDDLVG,failed
12,MSVPSPVNESLLSQRLAALGAARSWAPNVLPELEHFIRTADDYDLLRVNPIQYGGAVRMSEADAIELFVHAAKVGLFDMDWLLICAYCPQVAGSFRELDQVHPRFQCAFCNAINDVALDDYIQVAFTVSSGVRDIIFRHPERLSVEDFYLRYNFSKGFIAPHGMTHQQLVAALSRGFADIEAHEHRSFDFEVTAGRFEVLDLSHKLLLVFFADGEPAEPQETLVQLESGRFHVPDRPTAPKDMVLGDGQFSFRQTADLSPGKHTIRIENRTDDRGRFWFVQYPPGFAPHLVEYEPFLSGKRLLLTPSFRELYKAQLVDEGESIKVSDMTFLFTDLKKSTPLYESVGDVNAYFLVRQHFEILNRIIRERSGTIIKTIGDAVMAGFERPQDAVCAAIEMIEELSRFNQTASRPLGLKVGVHRGRAIAVNLNDRIDYFGQDVNIAARVQGLADVDEVCISATAMEAPGVGDIVNSRSVSRNYENLKGIGQKMEVHRMTIPPTQT,failed
13,MSVRPVDAALEGLQTMRRRPLTALAWATFSLVMLPILGLLVKIGLGDEGRQVLAGRGSSADPRELLDLVMNLGGAMVLLVALALLLGAVLQAAIIRSVLEPTNDRFAYLRLGKEEIQLLIVSLITWATALLCTIIPSGVVVLGSSLLSGAAAAWFAFLGALSVIGFSLWVAVRLSLLGPHAFSHHHIDIRAAWIQTHGQFWRLLGMFVLTIAIWILVSLLGAAVAGVIGKWLTAAVNLGASGLAASNSWLILSLLANMLLAPVFLTLQTVILVAAPARAFAQLNQDEIDAGLHA,failed
14,MSVSPVQPDPSVIGGVPKAPFVLKPNLARLFNDRASRFEALAQGSHLAPYLNFLAGITRIQSELVSALPPPEPVPADRVERARANAMPPIDRAAMGGSPDCREVLQQFFEKAEALEKPAAAAEALAQVRTADEEMLTWMIGNVMADDLPVESLAHHLYVAAAMQIQAARLAAGLDGSRLVPIRVGVCPACGGRPVASMVIGFHGAEGARYASCSCCATMWNEVRVKCLACGSTKGIGYQAVETGDEEATVKAEVCDTCNSWMKILYQNKNPSLDVVADDVASLGLDLLMKDTEYKRAGFDPFLMGY,not failed
15,MSVTRRELLKLAGAAGAMSLAPAIVRAQKLEKAKVQIAVGGKPLIYYLPLTIAEVKGFFKDEGLDVSIADFAGGSKALQAVVGGSADVVSGAFEHTLSLQAKGQFYRAFALQGRAPMIGVGVSKKNLPGYKGPADLKGRKIGVTAPGSSTNMVVNFFLAKHGLKASDVSFIGVGAGAGAVTALRSGQIDAISNTDPVVSMLETSGDIQIIVDTRTLKDTKEIFGGNMPAGCLYAPQAFVDANPNTAQALTNAIVRADKWIQKAGADEIAKAVPEGYLLGDPAVYKAAIGKSMEGLSPDGVIPEDGAATALKALAAFVPDFDAAKVDPAKAWTNEYTRRANEKYPNG,not failed
16,MSVVTESKTARKWAMPDTLVIIFFVAILTSIATWVVPVGMFDSQEVQYQVDGQTKTRKVVDPHSFRIVTNEAGEAQYHRVQFFTTGDERPGLMNFPFEGLTSGSKFGTAVGIIMFMLVIGGAFGIVMRTGTVDNGILALIRHTRGNEVLFIPVLFVLFSLGGAVFGMGKEAVAFAIIIAPLMVRLSYDSITTVLVTYIATQIGFASSWMNPFCVVVAQGIAGVPVLSGSGLRIVVWIVATLIGLVFTLVYASRVKKNPLLSRVHESDRYFREQQDEVVQRPFTFGDWLVLLVLTGVMIWVVWGVIVHAWFIPEIASQFFTMGVVIGLIGVIFRLNGMTVNVMASSFTEGARMMIAPALLVGFAKGILLLVGNGEAGEPSVLNTLLNSIAHGISGLNNAIAAWFMLLFQAVFNFFVTSGSGQAALTMPLLAPLGDLVGVNRQVTVLAFQFGDGFSHIIYPTSASLMATLGVCRVDFRNWLKVGASLLGLLFIMSSVVVIGAQMMGYH,failed
17,MSVWRRRAEGREPTQAQRLFRGLVREWLWVSLILLPLTAVLSLSHGLALNNLFYDNLRRFTPLPVDPRILLVTIDDYSLQQLGRWPWPRAIHGQLLDRLSAAEAKGVLFDVILSEPGSTVENDTRLAAALCRAGNVFLPVLRQGVARYGQDIEEIPPVPLLRNCARGLGHINAEADADGTVRSVYLREGPMLAPRAQLTWLLYQLTEAEPAFPHMPGPGEPRVAQGWLRSNPVRIPFISADAGFPSVPYVSVLRGEVPPELLRDRLILVGSTAPGLGDRYVTPQSGSQGTTPGVEIQANLLNGLLQHRSVVALGQWSGMLLSMALTAVLLGLLLWRPRHALWITLGCMGLGLAGSVLMLRLGYWWSPVASLLGMLLAYLIWNWRRLSVILAYFGWELARLDSEPKVLPERRRSQAPAGDVLQGQIVALEQALSRTRDTRRFIADGLEYLPVATLISDPDGKILLANRNAREVFAHSLVGEGLIAQLAALGYPGLTEPALYPRLEQLPAVEFRDVQQRSLRMELAPLLPVDSDTAIGWLLSLTDLSVERDAEQQRSVLLRFLSHDLRAPHSAILALLDVQRHQPATPRQVYGQIEQQVRRALALTEAFVQLAKAESEAYQFEPSMFAMLVLDAFDQATTLAQLKDIHLEHDLDDEAEGLVLADQSLLTRALFNLLENAIKYSPVESRVSVRVSCTPGWLRCEISDEGRGIDAADLPQLFGQYQRFASAKGIDGLGLGLSMVKAVVDRHQGRISCQSVVGRGSCFILELPLLEE,failed
18,MSYEDWAGGIRCSECGREYTGIECPICRQADPTEREVVTEHGNGRGDQQPPENGTVSADSGVYDIDKIEHERHTDAEKVNPEVVDPSDYVTRAVSGVVFNKRHAWKAENRADEDNPPSLFVVTTADSEFNWIEIPLWDDAEGAMEDISIGDPIQAEGKLSKDNGVHNIHVHSQDSIDILTEPPEVKFDSMAIDQITSTTPKVDLEGTVERVGEIKDIQLDDEKVKLREIHVSDLNNDQIQVALWRTNAYEKVAPGDEIIIAGGLAKPHNEKVVVRVGWSGHIGYRSSLEHHHHHH,failed
19,MSYERPLLAPLRAALSRPTPVVHVLIGPRQVGKTTITRQIQESIGISSIYATADSLVPLDSAWIETQWRRAVAEEAASGGPEIRVLILGSSALLMQQGLTESLAGRFFLHRCTHWGYPALEHHHHHH,failed
20,MSYMGKKKKDCLFHVDGFEEWMDQFCSDSCSNFSFPNQIHIDLCETEQEYILETDVPNVTEQNVVIKKMETGLNICILHKNISLQRNIPLPTTIIYKKMLACLENGFLAIHISKNEVANKHEEKVLFQIEN,failed
